Experiment [1] deals with fluorescein-labelled HA_(Anchorless) peptide (influenza virus). The experiment in a line: dissociation kinetics of fluorescent peptide-MHC complexes.
Experiment [2] addresses Cys-HA_(Anchorless) peptide, unlabelled (influenza virus). Briefly: SPR. Background: SPR reads the build-up and loss of mass on a sensor chip optically.
Experiment [3] concerns the target influenza virus hemagglutinin peptide HA_(305–318), unlabelled (influenza virus). Briefly: SPR.

In experiment [1], “soluble mutant HLA-DR1 with β86 glycine changed to tyrosine (from UniProt P01903) (complex)” had a t1/2 of dissociation of 1.8 h. In experiment [2], the dissociation rate in the presence of DM worked out at 8.5e-05 s⁻¹, the rate of binding to the peptide surface in the absence of DM was 0.119 s⁻¹, the t1/2 in the presence of DM is 2.25 h and the t1/2 of dissociation was 3.4 h.
In turn, “soluble wild-type HLA-DR1 (empty, no added peptide) (from UniProt P01903) (complex)” displayed a t1/2 of dissociation in experiment [1] of 1.8 h. In addition, in experiment [3], the dissociation rate in the presence of DM came to 5.6e-07 s⁻¹ and the t1/2 in the presence of DM was found to be 344 h. Moreover, in experiment [2], the dissociation rate in the presence of DM amounted to 0.0038 s⁻¹, the rate of binding to the peptide surface in the absence of DM came to 0.035 s⁻¹ and the t1/2 in the presence of DM was determined as 0.05 h.

(Values after publication PMC2213500 (The Journal of Experimental Medicine, 2000).)
